Measured values from patent US20200392225A1 (Novartis, published 2020).
Substitutions are numbered along the chain they refer to.

T1: human NPR1 (Natriuretic Peptide Receptor 1), recombinant antigen (human, UniProt P16066 33-473)
T1 construct: also called hNPR1; NPR1-hFc
T1 sequence: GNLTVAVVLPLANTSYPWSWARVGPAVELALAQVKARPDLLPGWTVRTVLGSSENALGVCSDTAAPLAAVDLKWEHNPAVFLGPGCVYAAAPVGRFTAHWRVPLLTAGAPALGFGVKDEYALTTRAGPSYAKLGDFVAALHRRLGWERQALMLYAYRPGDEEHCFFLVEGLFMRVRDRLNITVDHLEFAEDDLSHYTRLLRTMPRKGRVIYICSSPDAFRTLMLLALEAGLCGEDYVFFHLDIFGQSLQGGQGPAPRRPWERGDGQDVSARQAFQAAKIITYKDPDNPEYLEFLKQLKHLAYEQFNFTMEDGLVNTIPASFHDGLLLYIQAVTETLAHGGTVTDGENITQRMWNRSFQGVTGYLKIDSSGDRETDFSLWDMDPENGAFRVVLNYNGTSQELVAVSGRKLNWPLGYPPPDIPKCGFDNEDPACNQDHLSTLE

T2: rat NPR1, recombinant antigen (rat, UniProt P18910 29-469)
T2 construct: NCBI NP_036745.1 printed; also called rNPR1
T2 sequence: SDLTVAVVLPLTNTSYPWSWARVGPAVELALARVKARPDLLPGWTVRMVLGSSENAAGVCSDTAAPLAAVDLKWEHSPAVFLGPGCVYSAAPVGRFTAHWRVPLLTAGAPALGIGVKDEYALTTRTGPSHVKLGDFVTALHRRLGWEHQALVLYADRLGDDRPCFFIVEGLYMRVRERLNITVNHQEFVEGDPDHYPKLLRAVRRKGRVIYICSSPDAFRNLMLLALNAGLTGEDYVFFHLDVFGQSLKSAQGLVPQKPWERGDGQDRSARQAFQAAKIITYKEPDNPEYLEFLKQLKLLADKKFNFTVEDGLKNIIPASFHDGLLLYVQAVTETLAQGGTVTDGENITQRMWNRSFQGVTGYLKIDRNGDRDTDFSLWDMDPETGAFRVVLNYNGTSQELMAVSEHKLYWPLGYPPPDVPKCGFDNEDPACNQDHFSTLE

T3: constitutively active human NPR1 mutant (W74R), recombinant antigen (human, UniProt P16066 33-473)
T3 construct: also called W74R hNPR1
T3 sequence: T1 sequence with W74R

T4: human NPR1 expressed on CHO-K1 cells (human, UniProt P16066 33-1061)
T4 sequence: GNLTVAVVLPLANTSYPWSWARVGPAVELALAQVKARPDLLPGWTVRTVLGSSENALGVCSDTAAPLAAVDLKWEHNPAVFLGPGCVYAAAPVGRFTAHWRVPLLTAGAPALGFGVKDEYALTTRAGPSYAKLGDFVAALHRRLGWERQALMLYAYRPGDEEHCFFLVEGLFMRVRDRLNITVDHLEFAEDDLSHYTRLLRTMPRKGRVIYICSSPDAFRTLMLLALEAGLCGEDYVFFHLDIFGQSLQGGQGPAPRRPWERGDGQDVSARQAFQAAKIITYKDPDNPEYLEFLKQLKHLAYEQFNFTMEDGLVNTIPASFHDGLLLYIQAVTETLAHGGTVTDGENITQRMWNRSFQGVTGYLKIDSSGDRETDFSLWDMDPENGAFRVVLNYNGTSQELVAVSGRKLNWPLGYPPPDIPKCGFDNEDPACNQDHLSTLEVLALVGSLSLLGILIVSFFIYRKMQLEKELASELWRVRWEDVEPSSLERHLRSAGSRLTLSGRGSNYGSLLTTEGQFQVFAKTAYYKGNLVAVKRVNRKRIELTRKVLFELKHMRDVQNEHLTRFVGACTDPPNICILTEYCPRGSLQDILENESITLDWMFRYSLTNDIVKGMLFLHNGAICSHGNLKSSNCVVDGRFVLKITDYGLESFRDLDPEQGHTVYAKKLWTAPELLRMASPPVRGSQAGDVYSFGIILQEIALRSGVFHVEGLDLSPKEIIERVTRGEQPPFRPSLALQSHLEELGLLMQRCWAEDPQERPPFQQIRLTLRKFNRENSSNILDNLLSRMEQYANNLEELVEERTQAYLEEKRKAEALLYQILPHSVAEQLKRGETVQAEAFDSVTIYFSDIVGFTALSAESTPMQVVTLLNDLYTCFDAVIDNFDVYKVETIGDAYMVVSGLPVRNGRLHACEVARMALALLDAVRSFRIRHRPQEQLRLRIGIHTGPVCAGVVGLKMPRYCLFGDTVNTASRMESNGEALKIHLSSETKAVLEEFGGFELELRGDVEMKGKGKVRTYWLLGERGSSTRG

T5: human NPR1-ANP complex (human, UniProt P01160 124-151, limits assumed)
T5 construct: Receptor antigen measured in the presence of ANP; also called hNPR1 + ANP; hNPR1-ANP-complex
T5 sequence: T1 sequence
T5 sequence (peptide): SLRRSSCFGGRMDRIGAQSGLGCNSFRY

T6: human NPR1 expressed on CHO-K1 cells in the presence of ANP (human, UniProt P01160 124-151)
T6 construct: also called hNPR1 CHO K1 + 100 nM ANP
T6 sequence: T4 sequence
T6 sequence (peptide): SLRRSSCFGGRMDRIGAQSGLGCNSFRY

B1: YY05 IgG (YY05_LALA) (antibody, V domains shown)
VH: EVQLVQSGAEVKKPGESLKISCKGSGYSFTSYWISWVRQMPGKGLEWMGIIYPGTSYTRYSPSFQGQVTISADKSISTAYLQWSSLKASDTAMYYCARGAVAGQLGFDHWGQGTLVTVSS
VL: QSVLTQPPSVSGAPGQRVTISCTGSSSNIGAGYDVHWYQQLPGTAPKLLIYGNSNRPSGVPDRFSGSKSGTSASLAITGLQAEDEADYYCQSYYTSSHGPVFGGGTKLTVLG
B2: YY06 IgG (YY06_LALA) (antibody, V domains shown)
VH: EVQLLESGGGLVQPGGSLRLSCAASGFTFSSYAISWVRQAPGKGLEWVSAISGSGGSTYYAESVKGRFTISRDNSKNTLYLQMNSLRAEDTAVYYCARPYLGDRRSYGFDHWGQGTLVTVSS
VL: QSALTQPASVSGSPGQSITISCTGTSSDVGSYNLVSWYQQHPGKAPKLMIYEGSKRPSGVSNRFSGSKSGNTASLTISGLQAEDEADYYCSSYGFHIVVVVFGGGTKLTVLG
B3: XX07 IgG (antibody, V domains shown)
VH: QVQLLESGGGLVQPGGSLRLSCAASGFTFSSYWMNWVRQAPGKGLEWVSAISSDGSYTYYADSVKGRFTISRDNSKNTLYLQMNSLRAEDTAVYYCARDRYSMIYSYGAGAFDYWGQGTLVTVSS
VL: DIQMTQSPSSLSASVGDRVTITCRASQGISSYLAWYQQKPGKAPKLLIYTASTLQSGVPSRFSGSGSGTDFTLTISSLQPEDFATYYCQQIWTVPRTFGQGTKVEIKR
notes: also called XX07_LALA
B4: XX12 IgG (antibody, V domains shown)
VH: B3 VH
VL: B3 VL with T93M, V94A
notes: also called XX12_LALA
B5: YY02 IgG (YY02_LALA) (antibody, V domains shown)
VH: EVQLVESGGGLVKPGGSLRLSCAASGFTFSSYSMNWVRQAPGKGLEWVSSISSSSSYIYYADSVKGRFTISRDNAKNSLYLQMNSLRAEDTAVYYCARSGYRGVYGFDYWGQGTLVTVSS
VL: B3 VL with L11V, Y32W, T50A, T53S, I91Y, W92Y, T93H, V94S, R96L
B6: XX08 (antibody, human IgG1, kappa, L234A L235A, V domains shown)
VH: EVQLLESGGGLVQPGGSLRLSCAASGFTFNTHYIHWVRQAPGKGLEWVSSIGGQGGMTLYADSVKGRFTISRDNSKNTLYLQMNSLRAEDTAVYYCARERGYVYYHMFDPWGQGTLVTVSS
VL: DIVLTQSPATLSLSPGERATLSCRASQSITRNYLAWYQQKPGQAPRLLIYGASSRATGIPARFSGSGSGTDFTLTISSLEPEDFAVYYCQQHSMYPRTFGQGTKVEIKR
notes: the panel axis reads IgG conc; [nM]; the list MOLECULES holds only the FabCys format; also called XX08 IgG; XX08_LALA

Columns and labels:
[1] = target: T1, human NPR1 (Natriuretic Peptide …); assay: ELISA, 1 uM IgG
[2] = target: T2, rat NPR1, recombinant antigen; assay: ELISA, 1 uM IgG
[3] = target: T3, constitutively active human NPR1 mutant …; assay: ELISA, 1 uM IgG
[4] = target: T4, human NPR1 expressed on CHO-K1 cells; assay: cell-based or functional assay
[5] = target: T4, human NPR1 expressed on CHO-K1 cells; assay: flow cytometry, 1 uM IgG
[6] = target: T5, human NPR1-ANP complex; assay: ELISA, 1 uM IgG, +100 nM ANP
[7] = target: T7, rat NPR1-ANP complex (rat); assay: ELISA, 1 uM IgG, +100 nM ANP
T7 construct: Rat receptor antigen measured in the presence of ANP; also called rNPR1 + ANP; rNPR1-ANP-complex

[8] = target: T6, human NPR1 expressed on CHO-K1 cells in …; assay: flow cytometry, 1 uM IgG, +100 nM ANP
[9] = target: T3, constitutively active human NPR1 mutant …; assay: ELISA, IgG titrated on the antigen without ANP [cont.]
[10] = target: T1, human NPR1 (Natriuretic Peptide …); assay: as above
[11] = target: T1, human NPR1 (Natriuretic Peptide …); assay: FRET assay on hNPR1, competitor Cy5-labeled ANP [cont.]
[12] = target: T5, human NPR1-ANP complex; assay: ELISA, IgG titrated on the antigen with 250 fold molar excess of ANP [cont.]
[13] = target: T7, rat NPR1-ANP complex; assay: as above
[14] = target: T6, human NPR1 expressed on CHO-K1 cells in …; assay: flow cytometry, hNPR1 expressing CHO-K1 cells with saturating ANP [cont.]
[15] = target: T5, human NPR1-ANP complex; assay: FRET assay on hNPR1, competitor Cy5-labeled ANP (half-maximal rise of the ANP signal) [cont.]
[16] = target: T3, constitutively active human NPR1 mutant …; assay: ELISA, IgG titrated on the antigen without ANP
[17] = target: T5, human NPR1-ANP complex; assay: ELISA, IgG titrated on the antigen with 250 fold molar excess of ANP [cont.]; remark: listed apart in the source

Row | Binder | ELISA IgG binding at 1 uM IgG (unit not given) [1] | ELISA IgG binding at 1 uM IgG (unit not given) [3] | cGMP conc [nM] at 1 uM IgG, +0.075 nM ANP [4] [nM] | cGMP conc [nM] at 1 uM IgG, without ANP [4] [nM] | flow cytometry S/BG [5] [S/BG] | ELISA IgG binding at 1 uM IgG (unit not given) [6] | ELISA IgG binding at 1 uM IgG (unit not given) [7] | flow cytometry S/BG [8] [S/BG] | EC50 (read off the curve) [9] [nM] | further results
1 | B1 | 81 | 69 | 15 | 13 | 15 | 32 | 16 | 5 | ~1 | ELISA IgG binding at 1 uM IgG (unit not given) [2]: 11
2 | B2 | 91 | 83 | 15 | 12 | 26 | 102 | 4 | 18 | ~5 | EC50 (read off the curve) [10]: ~8 nM; IC50 (read off the curve) [11]: ~5 nM; EC50 (read off the curve) [12]: ~8 nM
3 | B3 |  |  |  |  |  |  |  |  |  | EC50 (read off the curve) [13]: ~0.2 nM
4 | B4 |  |  |  |  |  |  |  |  |  | EC50 (read off the curve) [14]: ~0.9 nM; EC50 (read off the curve) [15]: ~0.5 nM
5 | B5 |  |  |  |  |  |  |  |  |  | EC50 (read off the curve) [16]: ~2 nM
6 | B6 |  |  |  |  |  |  |  |  |  | EC50 (read off the curve) [17]: ~0.5 nM
